Assay [1] addresses T1, PBD-C06 (final humanized, de-immunized antibody with the complement mutation K322A) (human). Nature of the assay: SPR. A general note: Surface plasmon resonance follows binding to a sensor surface in real time, without labels.
In assay [2] the target is T1, PBD-C06 (final humanized, de-immunized …). Put plainly: SPR. The source holds these as a separate data set.

For two molecules, Kd and koff results are on record in PMC7040040 (2020).

Non-standard residues stand in square brackets, D forms with d. No end group written: not given here. pGlu = O=C1CC[C@@H](C(=O)O)N1

T1 sequence (chain, as listed by the source K322A, chain 1 of 2): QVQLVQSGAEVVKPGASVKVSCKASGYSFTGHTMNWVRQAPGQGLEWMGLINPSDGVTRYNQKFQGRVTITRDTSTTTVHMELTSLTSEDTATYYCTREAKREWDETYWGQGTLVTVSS
T1 sequence (chain, as listed by the source K322A, chain 2 of 2): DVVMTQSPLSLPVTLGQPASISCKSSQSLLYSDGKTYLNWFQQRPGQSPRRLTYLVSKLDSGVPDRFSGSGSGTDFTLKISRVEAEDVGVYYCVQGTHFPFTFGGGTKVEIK

The term Kd denotes a measure of binding affinity in units of concentration. Broadly, the koff is a measure of how fast the partners let go of each other. High values mean a short-lived complex, low ones a long-lived complex. Turning to [pGlu]FRHDSGYEVHHQKLV [pE3-Aβ(3–18) monomer], in assay [1], the Kd was determined as 7.86 nM. In addition, in assay [2], the koff was 0.00393 s⁻¹.

Turning to FRHDSGYEVHHQKLV [Aβ(4–18) monomer], the Kd in assay [1] is greater than 50000 nM.
